Here are results for 3 molecules from PMC5167418, “A Novel Functional Domain of Tab2 Involved in the Interaction with Estrogen Receptor Alpha in Breast Cancer Cells” (PLoS ONE, 2016).

Experiment [1] deals with T1, Recombinant human ERα (human, UniProt P03372 1-595).
T1 construct: recombinant human ERα, bought; also called recombinant hERα; source: bought: Life Technologies
T1 sequence (looked up): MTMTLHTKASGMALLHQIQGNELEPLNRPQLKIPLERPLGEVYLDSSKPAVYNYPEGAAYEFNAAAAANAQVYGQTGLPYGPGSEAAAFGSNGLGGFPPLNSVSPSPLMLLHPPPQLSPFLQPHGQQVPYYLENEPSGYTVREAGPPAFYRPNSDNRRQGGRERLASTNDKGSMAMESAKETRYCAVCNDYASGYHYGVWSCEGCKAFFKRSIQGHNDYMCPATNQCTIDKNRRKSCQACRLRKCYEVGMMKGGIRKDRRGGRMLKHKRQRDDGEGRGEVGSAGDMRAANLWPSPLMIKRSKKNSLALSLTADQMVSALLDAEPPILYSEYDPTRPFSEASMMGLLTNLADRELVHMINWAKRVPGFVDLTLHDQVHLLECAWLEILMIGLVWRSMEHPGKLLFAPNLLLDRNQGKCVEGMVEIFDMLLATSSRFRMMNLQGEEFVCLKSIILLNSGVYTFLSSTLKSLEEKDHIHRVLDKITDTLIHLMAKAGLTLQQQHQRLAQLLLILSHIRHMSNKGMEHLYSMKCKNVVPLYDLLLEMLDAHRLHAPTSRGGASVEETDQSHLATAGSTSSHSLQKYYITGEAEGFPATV

In experiment [2] the target is T1, Recombinant human ERα. Briefly: pull-down; competition: 10 μg MBP-Tab2(406–531) preincubated 1 h at 4°C with synthetic Tab2 peptides (10 μM each, or Tab2-pept3 100 nM to 10 μM), then recombinant hERα (1 nM) 1.5 h at 4°C, amylose resin, immunoblot. The note with it: both partners purified. (In general: Immunoblotting shows a protein as a band on a membrane.)
Experiment [3] addresses T1, Recombinant human ERα. Put plainly: pull-down; competition screening: MBP-Tab2(406–531) and recombinant hERα (1 nM) with or without in vitro translated fragments of Tab2(406–531); the pair that is blocked. The note with it: both partners purified.

In the case of “TAT-Tab2-pept3 (from UniProt Q9NYJ8 480-496) (peptide)”, the proliferation (bromo-deoxyuridine incorporation) of MCF7 TamR cells in 1 μM 4OHT, peptide 1 to 100 μM, 24 h; the peptide is meant to interfere with Tab2/ERα with Recombinant human ERα [1] was in the range of 50 to 70 µM.

B1: Tab2-pept3 (peptide, UniProt Q9NYJ8 480-496, looked up)
peptide: VVSPTFELTNLLNHPDH
notes: 17-aa synthetic peptide mimicking aa; 480–496 of human Tab2, a portion of Fragment 4; includes the LTNLL motif; also called Tab2 mimic peptide; SRID peptide; source: synthetic peptide (microwave-assisted synthesis, RP-HPLC purified)
For the molecule B1, the binding result in the experiment with Recombinant human ERα [2] is reported as “binds”.

B2: MBP-Tab2(406–531) (domain or fragment, human, UniProt Q9NYJ8 406-531, looked up)
chain: TLFISTNSGASAASRNMSGQVSMGPAFIHHHPPKSRAIGNNSATSPRVVVTQPNTKYTFKITVSPNKPPAVSPGVVSPTFELTNLLNHPDHYVETENIQHLTDPTLAHVDRISETRKLSMGSDDAA
notes: human Tab2, aa 406–531 (central domain); also called MBP-406-531Tab2; 406-531Tab2; source: bacteria, purified MBP fusion (pMALc2)
For B2, the binding result with Recombinant human ERα [3] is reported as “binds”.
